What was measured:
[1] = target: cynomolgus T cell receptor (TCRαβ) on primary cynomolgus T cells (cynomolgus); assay: cell-based or functional assay
[2] = target: human T cell receptor (TCRαβ) on primary human T cells (human); assay: cell-based or functional assay
human T cell receptor (TCRαβ) on primary human T cells (human), sequence (P0DTU3 134-275, chain 1 of 2): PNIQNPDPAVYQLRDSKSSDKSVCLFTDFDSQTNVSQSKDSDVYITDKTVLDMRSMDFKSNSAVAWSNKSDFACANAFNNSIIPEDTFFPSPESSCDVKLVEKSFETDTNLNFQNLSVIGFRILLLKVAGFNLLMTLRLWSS
human T cell receptor (TCRαβ) on primary human T cells (human), sequence (P01850 other isoform, or with tags, fused parts or gaps, chain 2 of 2, further chain): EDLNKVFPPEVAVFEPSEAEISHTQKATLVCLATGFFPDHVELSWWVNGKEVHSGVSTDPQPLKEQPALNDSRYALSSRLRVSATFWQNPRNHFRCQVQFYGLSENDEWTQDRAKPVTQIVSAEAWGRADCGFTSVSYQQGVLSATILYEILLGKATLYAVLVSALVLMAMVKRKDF

Row | Binder | IC50 (M), cynomolgus T cell mediated HuH-7 cell killing, Cynomolgus Donor #1 [1] [M] | IC50 (M), cynomolgus T cell mediated HuH-7 cell killing, Cynomolgus Donor #2 [1] [M] | IC50 (M), human T cell mediated HuH-7 cell killing, Human Donor #1 [2] [M] | IC50 (M), human T cell mediated HuH-7 cell killing, Human Donor #2 [2] [M]
1 | A022600427 (protein) DVQLVESGGGVVQPGGSLRLSCVASGYVHKINFYGWYRQAPGKEREKVAHISIGDQTDYADSAKGRFTISRDESKNTVYLQMNSLRPEDTAAYYCRALSRIWPYDYWGQGTLVTVSSGGGGSEVQLVESGGGVVQPGGSLRLSCAASGFTFSSFAMTWVRRPPGKGLEWVATITNAGVTSYADSVKGRFTISRDNAKNTLYLQMNSLRPEDTALYICANARRTGPRAPTDIGSYRGQGTLVTVSSGGGGSGGGSEVQLVESGGGVVQPGGSLRLSCAASGSIFRSVFSSSTMEWYRQAPGKKRELVARIAPGEGTYYGALYADSVKGRFTISRDNAKNTVYLQMNSLRPEDTALYYCASGVAWGQGTLVTVSSGGGGSGGGSEVQLVESGGGVVQPGGSLRLSCAASGFTFRSFGMSWVRQAPGKGPEWVSSISGSGSDTLYADSVKGRFTISRDNSKNTLYLQMNSLRPEDTALYYCTIGGSLSRSSQGTLVTVSSA | 2.3e-08 | 2.5e-10 | 3e-10 | 1.1e-10
2 | A022600462 (protein) DVQLVESGGGVVQPGGSLRLSCVASGYVHKINFYGWYRQAPGKEREKVAHISIGDQTDYAESAKGRFTISRDESKNTVYLQMNSLRPEDTAAYYCRALSRIYPYDYWGQGTLVTVSSGGGGSEVQLVESGGGVVQPGGSLRLSCAASGFTFSSFAMTWVRRPPGKGLEWVATITNKGVTSYADSVKGRFTISRDNAKNTLYLQMNSLRPEDTALYICANARRTGPRAPTDIGSYRGQGTLVTVSSGGGGSGGGSEVQLVESGGGVVQPGGSLRLSCAASGSIFRSVFSSSTMEWYRQAPGKKRELVARIAPGEGTYYGALYADSVKGRFTISRDNAKNTVYLQMNSLRPEDTALYYCASGVAWGQGTLVTVSSGGGGSGGGSEVQLVESGGGVVQPGGSLRLSCAASGFTFRSFGMSWVRQAPGKGPEWVSSISGSGSDTLYADSVKGRFTISRDNSKNTLYLQMNSLRPEDTALYYCTIGGSLSRSSQGTLVTVSSA | 3.9e-09 | 2.2e-10 | 2.8e-10 | 1e-10

From US20240109965A1
